Results published in patent US20230265516A1 (UNIVERSITY OF ARIZONA ARIZONA BOARD OF REGENTS, published 2023).

Biological target: T1, nicotinamide phosphoribosyltransferase (NAMPT), secreted form (Homo sapiens (Human), UniProt P43490 1-491)
T1 construct: also called PBEF; visfatin
Assay: SPR (format not described)

T1 sequence (P43490 whole entry): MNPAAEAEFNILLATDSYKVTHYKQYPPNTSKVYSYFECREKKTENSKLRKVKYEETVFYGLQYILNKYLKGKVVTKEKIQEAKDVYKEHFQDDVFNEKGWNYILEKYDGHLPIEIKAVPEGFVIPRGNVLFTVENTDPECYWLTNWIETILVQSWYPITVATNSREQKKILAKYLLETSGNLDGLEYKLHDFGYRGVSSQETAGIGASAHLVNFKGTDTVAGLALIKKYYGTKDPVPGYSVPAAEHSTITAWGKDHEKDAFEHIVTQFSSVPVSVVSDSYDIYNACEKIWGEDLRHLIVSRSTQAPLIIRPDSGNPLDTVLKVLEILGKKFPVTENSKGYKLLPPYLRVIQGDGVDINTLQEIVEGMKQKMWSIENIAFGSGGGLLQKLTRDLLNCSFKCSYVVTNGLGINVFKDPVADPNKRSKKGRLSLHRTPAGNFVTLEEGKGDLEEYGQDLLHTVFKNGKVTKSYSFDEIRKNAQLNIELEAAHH

- Kd: 4.5 nM
B1: humanized anti-NAMPT monoclonal antibody ALT-100 (antibody, V domains shown)
VH: QVQLVQSGAEVTKPGASVKVSCKASGYTFTSYWMQWVRQAPGQGLEWVGEIEPSNSYTNYNQKFRGRVTLTRDTSTTTVYMELSSLRSEDTAVYYCARGGYWGQGTTVTVSS
VL: DIVMTQSPLSLPVTPGEPASISCRSSKSLLHSQGITYLYWYLQKPGQSPQLLIYQLSNRASGVPDRFSGSGSGTDFTLKISRVEAEDVGVYYCVQNLELPYTFGGGTKLEIK
notes: the in vivo control was an IgG1 antibody; also called ALT-100 mAb; Ab3
